Laboratory results taken from PMC5845890, “Pathophysiological Consequences of Neuronal α-Synuclein Overexpression: Impacts on Ion Homeostasis, Stress Signaling, Mitochondrial Integrity, and Electrical Activity” (Frontiers in Molecular Neuroscience, 2018).

Biological target: T1, Soluble domain (residues 1-209) of human Bcl-Xl (human, UniProt Q07817-1 1-209)
T1 construct: residues left at the N-terminus after thrombin cleavage of the 6XHis tag; Bcl-Xl, human, soluble domain, residues 1-209; 15N-labelled for the titration with peptides; BMRB 19521 (Follis et al., 2014) was used only for the chemical shift assignment; also called 15N-Bcl-Xl; source: BL21 E. coli (pET15b), purified (nickel-sepharose, thrombin digestion, reverse IMAC, size exclusion chromatography); …
T1 sequence (Q07817 other isoform, or with tags, fused parts or gaps): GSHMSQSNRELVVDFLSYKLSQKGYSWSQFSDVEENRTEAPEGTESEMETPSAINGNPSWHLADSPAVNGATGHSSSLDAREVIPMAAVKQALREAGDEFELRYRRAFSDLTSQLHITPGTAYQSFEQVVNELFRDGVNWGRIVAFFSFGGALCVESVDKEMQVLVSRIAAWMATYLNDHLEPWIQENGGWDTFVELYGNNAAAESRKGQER
Assay: NMR titration; 15N-Bcl-Xl with synthetic α-Syn (1-26) peptides; 1H-15N HSQC at 298 K; Hepes 25 mM pH 7.0, NaCl 50 mM, 10% D2O, 1 mM DTT; ΔδN against ligand concentration fitted by a single binding model; Kd averaged over residues 94, 120, 134 and 196 of Bcl-Xl
Details: both partners purified

B1: N-terminal acetylated alpha-synuclein peptide 1-26 (peptide)
peptide: not shown
modifications: acetyl group at the N-terminus
notes: α-Synuclein, human, residues 1-26; also called α-Syn (1-26) peptide with an acetyl group at the N-terminus; source: synthetic peptide (Fmoc solid-phase synthesis, reversed-phase HPLC)
Work on B1 yielded a Kd of 1950 ± 560 µM.
